{"source": "patent US20160311918A1", "about": "“Anti-Ron Monoclonal Antibodies as a Cytotoxic Drug Delivery System for Targeted Cancer Therapy” (TEXAS TECH UNIVERSITY SYSTEM, priority 2013, published 2016)", "molecules": {"B1": {"name": "Zt/g4-DM1: anti-RON mouse mAb Zt/g4 conjugated to maytansinoid DM1 via non-reducible thioether linkage (SMCC), DAR about 4:1 (conjugate)", "VH": "EVQLQQSGAELVKPGASVKLSCTTSGFNIIDTYIHWVNQKPDQGLEWIGRIDPADGNRKSDPKFQVKATITVDTSSNTAYLQLSSLTSGDTAVYYCARGYGNLNAMDSWGQGTSVTVSS", "VL": "DIQMNQSPSSLSASLGDTITITCHASQNINVWLNWYQQKPGNIPKLLIYKASNLHTGVPSRFSGSGSGTGFTLTISSLQPEDIATYYCQQGQSYPLTFGGGTKLEIK"}}, "key": {"[1]": {"target": "T1, RON on HCT116, HT29, and SW620 cells (Homo sapiens, UniProt Q04912)", "T1 construct": "We selected CRC cell lines LoVo, DLD1, HT29, HCT116, and SW620 expressing variable levels of RON as the cellular model; host or cells: HCT116, HT29, SW620", "assay": "Flow cytometric binding to CRC cell lines", "conditions": "all three CRC cell lines, flow cytometry", "experimental": "FIG. 2B: Binding of Zt/g4-DM1 to human CRC cell lines: HCT116, HT29, and SW620 cells (1×10^5 cells) were incubated with 5 μg Zt/g4-DM1 or Zt/c1-DM1. Free Zt/g4 and Zt/c1 was used as the control. Fluorescence intensity from individual samples was determined by flow cytometric analysis.\nThe binding capacity of Zt/g4-DM1 to RON was determined by flow cytometric analysis."}, "[2]": {"system": "PDAC cell-mediated tumor growth", "assay": "Mouse xenograft PDAC model", "assay_type": "in vivo", "conditions": "mouse PDAC xenograft models", "protocol": "Mouse xenograft PDAC model and anti-RON ADC treatment: Female athymic nude mice were injected with 5×106 L3.6PL, BxPC-3, or FG cells into the subcutaneous space of the right flank. Treatment began when all tumors have reached an average tumor volume of 100 to 200 mm3 The single-dose effect was studied by injection of 20 mg/kg Zt/g4-DM1. Tumor volumes were determined every four days using a previously described formula: V=pi/6×1.58×(length×width)3/2."}, "[3]": {"system": "HT29, HCT116, and SW620 cells", "assay": "Cell cycle analysis by flow cytometry", "assay_type": "cell-based, human", "conditions": "5 μg/ml"}, "[4]": {"system": "RON-negative LoVo cells", "assay": "Cell viability assay, LoVo", "assay_type": "cell-based, human", "protocol": "(§1) Cell viability and death assays: Cell viability 72 h after Zt/g4-DM1 treatment was determined by the MTT assay (22). Viable or dead cells were determined by the trypan blue exclusion assay. A total of 900 cells were counted from three individual wells to reach the percentages of dead cells.\nThe effect of Zt/g4-DM1 on cell viability was determined. […] The cells were treated with Zt/g4-DM1."}, "[5]": {"system": "CRC cell-mediated tumor growth", "assay": "Mouse xenograft CRC models, single dose, all three lines", "assay_type": "in vivo", "conditions": "single dose 20 mg/kg", "protocol": "Mouse xenograft CRC model and anti-RON ADC treatment: All mice studies were approved by the institutional animal care committee. Female athymic nude mice at 6 weeks of age (Taconic, Cranbury, N.J.) were injected with 5×10^6 HT29-Luc2, HCT116-luc2, or SW620 cells in the subcutaneous space of the right flank as previously described (18,33). Mice were randomized into different groups (five mice per group). […] The single-dose group received a tail vein injection of 20 mg/kg Zt/g4-DM1 in 0.1 ml PBS followed by observation for 28 days. The multi-dose study was performed by treating mice with Zt/g4-DM1 at 1, 3, 7, 10, and 15 mg/kg every four days for a total of five injections. Bioluminescence from individual tumors was measured every four days using Caliper IVIS image system (PerkinElmer). Tumor volumes from SW620-derived tumors were measured according to a formula: V=pi/6×1.58×(length×width)^3/2 (18,33). Animals were euthanized when tumor volumes exceeded 2000 mm^3 or if tumors became necrotic or ulcerated through the skin.\nThe inventors first determined the efficacy of a single dose of Zt/g4-DM1 at 20 mg/kg body weight on tumors derived from HCT116, HT29, and SW620 cells. Tumor growth by HCT116-luc2 and HT29-luc2 cells was measured by bioluminescence emitted from tumor cells. SW620-mediated tumors were evaluated by tumor volume (18,34). […]"}, "[6]": {"system": "three CRC cell lines (HCT116, HT29, SW620)", "assay_type": "cell-based, human", "set-up": "cell death: dose or concentration left out as unconfirmed", "protocol": "Cell viability was determined by the MTS assay. […] Morphological changes were observed under the Olympus BK-41 inverted microscope and photographed. […] FIG. 3D: Cell death percentages were determined by the trypan blue exclusion method.\nas §1"}, "[7]": {"system": "three CRC cell lines", "assay": "Cell viability, three CRC cell lines together", "conditions": "72 h after treatment", "protocol": "as §1"}, "[8]": {"system": "SW620-derived tumors", "assay": "SW620 mouse xenograft tumor model", "assay_type": "in vivo", "conditions": "single dose 20 mg/kg", "protocol": "(§2) Athymic nude mice (five mice per group) were subcutaneously inoculated with 5×10^6 HCT116, HT29, and SW620 cells followed by injection of 20 mg/kg Zt/g4-DM1 through tail vein. FIG. 4A: Tumor growth from HT29-luc2 or HCT116-luc2 cells was determined by measuring average photon intensity (left panel). SW620-derived tumor growth was monitored by measuring tumor volume (FIG. 4B) (right panel). FIG. 4C: Tumor images with photon emission or caliper measurement at day 16 are presented. The scale from minimal to maximal is set at 300 to 35,000 photons per second. The percentages of inhibition were calculated from the average photon emission (for HT29 and HCT116 cells) or tumor volume (for SW620 cells). […] The percentages of inhibition were calculated by a formula: (average tumor weight from Zt/g4-DM1 treated group/average tumor weight from control mice)×100%;\n(§3) Mouse xenograft CRC model and anti-RON ADC treatment: All mice studies were approved by the institutional animal care committee. […] Bioluminescence from individual tumors was measured every four days using Caliper IVIS image system (PerkinElmer). Tumor volumes from SW620-derived tumors were measured according to a formula: V=pi/6×1.58×(length×width)^3/2 (18,33). […]\n(§4) The inventors first determined the efficacy of a single dose of Zt/g4-DM1 at 20 mg/kg body weight on tumors derived from HCT116, HT29, and SW620 cells. […]"}, "[9]": {"system": "human pancreatic cancer cells", "assay": "PDAC cell viability in combination with chemotherapeutics", "assay_type": "cell-based", "conditions": "in vitro, chemotherapeutics including gemcitabine", "protocol": "In vitro cell viability and death assays: Cell viability after treatment of Zt/g4-DM1, chemotherapeutics, and their combinations was determined by the MTT assay. Cell death was determined by the trypan blue exclusion assay.\nFIGS. 10A to 10D are graphs that show the effect of Zt/g4-DM1 on pancreatic cancer cell cycle, viability, and apoptotic death. […] FIG. 12 are graphs that show synergism between Zt/g4-DM1 and chemotherapeutics by isobolograms."}, "[10]": {"system": "HCT116-luc2 xenograft tumor", "assay": "HCT116-luc2 mouse xenograft tumor model", "assay_type": "in vivo", "conditions": "single dose 20 mg/kg", "protocol": "as §2, §3, §4"}, "[11]": {"target": "RON (Homo sapiens, UniProt Q04912)", "sequence (Q04912 310-1400 limits assumed)": "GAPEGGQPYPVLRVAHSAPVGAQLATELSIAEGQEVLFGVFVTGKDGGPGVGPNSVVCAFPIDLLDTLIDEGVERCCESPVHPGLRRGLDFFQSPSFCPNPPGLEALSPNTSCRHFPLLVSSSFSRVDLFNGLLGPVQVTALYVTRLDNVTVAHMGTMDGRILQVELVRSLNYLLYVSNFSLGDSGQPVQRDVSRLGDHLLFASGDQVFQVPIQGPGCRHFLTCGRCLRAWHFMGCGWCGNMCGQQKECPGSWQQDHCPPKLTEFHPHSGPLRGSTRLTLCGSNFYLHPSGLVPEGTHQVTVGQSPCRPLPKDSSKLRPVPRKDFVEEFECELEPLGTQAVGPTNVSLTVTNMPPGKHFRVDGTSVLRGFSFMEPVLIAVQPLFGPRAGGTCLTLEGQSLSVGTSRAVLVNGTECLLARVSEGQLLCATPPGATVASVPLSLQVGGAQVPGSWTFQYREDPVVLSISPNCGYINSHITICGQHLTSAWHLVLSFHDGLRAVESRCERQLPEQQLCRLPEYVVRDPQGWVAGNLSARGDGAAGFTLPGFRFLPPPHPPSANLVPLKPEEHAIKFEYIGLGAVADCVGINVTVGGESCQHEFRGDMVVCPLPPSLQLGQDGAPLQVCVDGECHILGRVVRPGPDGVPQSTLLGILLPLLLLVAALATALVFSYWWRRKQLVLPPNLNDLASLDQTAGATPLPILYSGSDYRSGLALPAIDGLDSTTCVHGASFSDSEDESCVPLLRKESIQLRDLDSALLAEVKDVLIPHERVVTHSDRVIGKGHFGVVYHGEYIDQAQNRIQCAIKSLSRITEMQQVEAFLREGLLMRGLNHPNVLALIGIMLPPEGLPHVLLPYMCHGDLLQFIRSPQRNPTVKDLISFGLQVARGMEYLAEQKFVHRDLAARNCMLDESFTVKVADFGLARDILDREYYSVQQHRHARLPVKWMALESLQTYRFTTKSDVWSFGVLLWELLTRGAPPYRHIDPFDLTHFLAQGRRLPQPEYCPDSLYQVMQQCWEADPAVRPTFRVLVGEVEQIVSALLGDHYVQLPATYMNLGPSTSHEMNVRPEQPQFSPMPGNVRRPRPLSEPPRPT", "sequence (Q04912 25-304 limits assumed)": "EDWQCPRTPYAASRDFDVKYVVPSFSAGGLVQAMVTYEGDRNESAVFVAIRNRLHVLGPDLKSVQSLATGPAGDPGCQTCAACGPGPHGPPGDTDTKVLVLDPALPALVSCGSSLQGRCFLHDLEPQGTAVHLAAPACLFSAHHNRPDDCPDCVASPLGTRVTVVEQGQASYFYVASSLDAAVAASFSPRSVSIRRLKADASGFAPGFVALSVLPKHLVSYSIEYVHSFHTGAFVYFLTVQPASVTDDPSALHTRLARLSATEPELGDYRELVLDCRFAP", "assay": "Immunofluorescent localization of cytoplasmic RON in HT29 cells", "assay_type": "cell-based", "conditions": "5 μg/ml, 6 h"}}, "note": "Entries after “also recorded” stand apart in the source; their conditions may differ."}
{"molecule": "B1", "values": [{"measurement": "binding intensity compared with free Zt/g4", "setting": "[1]", "value": "No difference in binding intensity"}, {"measurement": "inhibition of PDAC xenograft tumor growth", "setting": "[2]", "value": "highly effective in inhibiting PDAC cell-mediated tumor growth; also recorded: highly effective in inhibition of xenograft PDAC growth"}, {"measurement": "time at which cell cycle profile changes were observed", "setting": "[3]", "value": "≤ 3", "unit": "h"}, {"measurement": "effect on cell cycle", "setting": "[3]; three CRC cell lines", "value": "dramatic increase in G2/M phase"}, {"measurement": "effect on cell viability", "setting": "[4]", "value": "no effect"}, {"measurement": "duration of tumor growth delay", "setting": "[5]", "value": "up to 20 days"}, {"measurement": "duration of efficacy without signs of tumor regrowth", "setting": "[5]; day 4 to day 16", "value": "up to 12 days"}, {"measurement": "IC50 cell death", "setting": "[6]", "value": "5 to 7", "unit": "µg/mL"}, {"measurement": "cell death", "setting": "[6]; 72 h", "value": "More than 50%"}, {"measurement": "reduction in cell viability", "setting": "[7]", "value": "More than 80%"}, {"measurement": "inhibition in tumor volume", "setting": "[8]; day 16", "value": 82, "unit": "%"}, {"measurement": "inhibition rate by average tumor weight", "setting": "[8]; day 28", "value": 61.9, "unit": "%"}, {"measurement": "combination effect with chemotherapeutics on PDAC cell viability", "setting": "[9]", "value": "synergistic effect"}, {"measurement": "inhibition by average bioluminescence intensity", "setting": "[10]; day 16", "value": "More than 95%"}, {"measurement": "inhibition rate by average tumor weight", "setting": "[10]; day 28", "value": 58.0, "unit": "%"}, {"measurement": "RON endocytosis by immunofluorescence", "setting": "[11]", "value": "intracellular localization of internalized RON occurred at 37 °C"}]}
